T1: GPR87(N)-Streptavidin (인간 GPR87 N-말단 세포외부위 영역과 STV 융합 항원) (human)
T1 construct: Purified on Ni-NTA, so a His tag is implied but not described; also called GPR87-STV
T1 chain: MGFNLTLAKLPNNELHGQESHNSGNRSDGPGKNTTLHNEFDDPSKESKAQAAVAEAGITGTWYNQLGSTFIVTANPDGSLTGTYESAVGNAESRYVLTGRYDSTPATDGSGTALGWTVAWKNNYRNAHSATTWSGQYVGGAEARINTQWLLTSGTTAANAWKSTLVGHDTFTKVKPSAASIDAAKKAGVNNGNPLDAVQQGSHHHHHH

B1: A5 (scFv), phage-displayed clone (scFv)
scFv: QVQLVQSGPGLVKPSETLSLTCSVSGGSMTSYYWSWVRQPPGKGLEWMGYVFHSGITNYSPSLKSRVTMSVDTSKNQFSLKLKSVTAVDTAVYYCAKKSGTSKKPIDYWGQGTTVTVSSGGGSSGGGGSGGGGSGGGGSDIVMTQSPSSLSASVGDRITITCRASQSVGTYVNWYQHKPGKAPKLLIYDASNLETGVPSRFSGSGSVTDFTLTITNLQPEDSATYYCLQHKNYPLTFGGGTKVEIKR
B2: B1 (scFv), phage-displayed clone (scFv)
scFv: EVQLVESGGGLVQPGRSLRLSCKASGFNFDEYALSWVRQAPGKGLEWVGFIRSKAYRETTEYAASVKGRCTISRDDSKSIAYLLMNSLRAEDTAVYYCARGHTPQRPYFDEWGQGTLVTVSSGGGSSGGGGSGGGGSGGGGSDIQMTQSPSFLSASVGDRITITCRASQSVGTYVNWYQQKLGKAPKLLIYTASTLQSGVPARFSGSGSGTEFTLTINGLQPEDFATYYCQQSYRPHFLTFGGGTQLTVLG
B3: 단일클론항체 B1 (IgG) (antibody, V domains shown)
VH: EVQLVESGGGLVQPGRSLRLSCKASGFNFDEYALSWVRQAPGKGLEWVGFIRSKAYRETTEYAASVKGRCTISRDDSKSIAYLLMNSLRAEDTAVYYCARGHTPQRPYFDEWGQGTLVTVSS
VL: DIQMTQSPSFLSASVGDRITITCRASQSVGTYVNWYQQKLGKAPKLLIYTASTLQSGVPARFSGSGSGTEFTLTINGLQPEDFATYYCQQSYRPHFLTFGGGTQLTVLG
notes: also called B1 항체
B4: 단일클론항체 A5 (IgG) (antibody, V domains shown)
VH: QVQLVQSGPGLVKPSETLSLTCSVSGGSMTSYYWSWVRQPPGKGLEWMGYVFHSGITNYSPSLKSRVTMSVDTSKNQFSLKLKSVTAVDTAVYYCAKKSGTSKKPIDYWGQGTTVTVSS
VL: DIVMTQSPSSLSASVGDRITITCRASQSVGTYVNWYQHKPGKAPKLLIYDASNLETGVPSRFSGSGSVTDFTLTITNLQPEDSATYYCLQHKNYPLTFGGGTKVEIKR
notes: also called A5 항체

What was measured:
[1] = biological target: T2, GPR87(N)-GST (인간 GPR87 N-말단 세포외부위 영역과 GST 융합 항원) (human); experiment: single-clone phage ELISA after 4 rounds of biopanning
T2 construct: also called GPR87-GST

[2] = biological target: T1, GPR87(N)-Streptavidin (인간 GPR87 N-말단 …); experiment: as above
[3] = biological target: T2, GPR87(N)-GST (인간 GPR87 N-말단 세포외부위 영역과 …); experiment: ELISA, antigen coated, IgG titrated; apparent equilibrium dissociation constant
[4] = biological target: T1, GPR87(N)-Streptavidin (인간 GPR87 N-말단 …); experiment: as above

| Binder | binding result [1] | binding result [2] | Kd [3] [nM] | Kd [4] [nM] |
| --- | --- | --- | --- | --- |
| B1 | binds | binds |  |  |
| B2 | binds | binds |  |  |
| B3 |  |  | 18.1 | 19.9 |
| B4 |  |  | 13.3 | 14.7 |
